Measured values: US9745556B2, “Variants of glycerol dehydrogenase having D-lactate dehydrogenase activity and uses thereof” (UNIVERSITY OF FLORIDA RESEARCH FOUNDATION, INC., priority 2011, dated 2017)
Substitutions are numbered along the chain they refer to. Names may count otherwise.

What was measured:
[1] = tested on: OCC(O)CO; assay: Kinetic properties of mutated glycerol dehydrogenase F245S; type: biochemical, Bacillus coagulans; conditions: other: F245S, 55° C., glycerol oxidation, pyruvate reduction or lactate oxidation, pH 5.0
Protocol: (§1) Cultures were grown (LB-glucose medium in pH-controlled fermenters) to mid-exponential phase, harvested, and used for enzyme assays as previously described (23). Glycerol dehydrogenase from strain QZ19 was purified using differential ammonium sulfate precipitation followed by anion-exchange and hydrophobic interaction chromatography. GlyDH and GlyDH* were also purified as N-terminal His-tagged enzymes (33). GlyDH and LDH were assayed using standard methods (34, 35).
(§2) During the development of a D-lactate producing B. coagulans derivative (strain QZ19), a glycerol dehydrogenase (GDH) with two mutations (D121N and F245S) evolved to catalyze the reduction of pyruvate to D-lactate (Table 1 and FIG. 7). The first derivative that produced a significant D-lactate titer, strain QZ15, carried a single mutation that changed the amino acid phenylalanine at position 245 to serine. As strain QZ15 was further selected for higher lactate productivity, the GDH protein acquired a second mutation in amino acid position 121 (D121N) (FIG. 15). Combination of these two mutations led strain QZ19 to produce D-lactic acid at a titer close to 100 g/L in 48 hours at pH 5.0 and 50° C. in pH-controlled fermentations. In order to evaluate the role of each of these two mutations in the catalysis of pyruvate reduction to D-lactate, GDH/LDH enzyme with either of the two substitutions (D121N or F245S) and the protein with both changes were expressed in E. coli, purified, and their biochemical properties were determined.

[2] = tested on: CC(=O)C(=O)O; assay: as above; type: biochemical, Bacillus coagulans; conditions: other: F245S, 55° C., pH 5.0
Protocol: as §1, §2

[3] = target: Bacillus coagulans glycerol dehydrogenase (GlyDH/GDH), native, strain P4-102B, SEQ ID NO: 3 (Heyndrickxia coagulans, UniProt A0AAN0T381); type: biochemical; conditions: native enzyme
Protocol: as §1
as §2, with “Combination of these two mutations led strain QZ19 to produce D-lactic acid at a titer close to 100 g/L in 48 hours at pH 5.0 and 50° C. in pH-controlled fermentations.” left out

[4] = target: T1, Bacillus coagulans glycerol dehydrogenase (GlyDH/GDH, native SEQ ID NO: 3) variant D121N (Heyndrickxia coagulans, UniProt A0AAN0T381, D121N); assay: Kinetic properties of mutated glycerol dehydrogenase D121N; type: biochemical; conditions: D121N alone; compared to native enzyme; in words
T1 sequence (A0AAN0T381 1-367 D121N): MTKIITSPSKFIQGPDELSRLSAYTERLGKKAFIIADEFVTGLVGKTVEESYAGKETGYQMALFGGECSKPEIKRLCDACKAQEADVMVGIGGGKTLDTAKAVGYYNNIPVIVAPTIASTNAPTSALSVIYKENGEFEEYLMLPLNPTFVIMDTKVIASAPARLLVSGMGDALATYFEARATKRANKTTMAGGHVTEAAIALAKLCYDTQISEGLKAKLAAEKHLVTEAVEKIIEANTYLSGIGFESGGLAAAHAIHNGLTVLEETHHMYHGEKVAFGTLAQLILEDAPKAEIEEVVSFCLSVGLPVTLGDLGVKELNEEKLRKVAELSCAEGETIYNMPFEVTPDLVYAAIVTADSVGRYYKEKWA
Protocol: as §1, §2

[5] = tested on: C[C@@H](O)C(=O)O; assay: as above; type: biochemical, Bacillus coagulans; conditions: other: D121N, 55° C., pH 5.0
Protocol: as §1, §2

[6] = tested on: OCC(O)CO; assay: as above; type: biochemical, Bacillus coagulans; conditions: other: D121N, 55° C., pH 5.0
Protocol: as §1, §2

[7] = tested on: CC(=O)C(=O)O; assay: as above; type: biochemical, Bacillus coagulans; conditions: other: D121N, 55° C., pH 5.0
Protocol: as §1, §2

[8] = substrate: OCC(O)CO; assay: purified protein, by the assay type; conditions: other: column head, D121N; 55° C.; pH 5.0; 55.0 °C
[9] = substrate: CC(=O)C(=O)O; assay: purified protein, by the assay type; conditions: other: enzyme with both changes; pH 5.0; 50.0 °C
[10] = substrate: NC(=O)C1=CN([C@@H]2O[C@H](COP(=O)(O)OP(=O)(O)OC[C@H]3O[C@@H](n4cnc5c(N)ncnc54)[C@H](O)[C@@H]3O)[C@@H](O)[C@H]2O)C=CC1; assay: purified protein, by the assay type; conditions: other: Native, 55° C., glycerol oxidation, pyruvate reduction or lactate oxidation, pH 5.0
[11] = substrate: OCC(O)CO; assay: purified protein, by the assay type; type: biochemical, Bacillus coagulans; conditions: other: Native, 55° C., glycerol oxidation, pyruvate reduction or lactate oxidation, pH 5.0
Protocol: as §1
as §2, with “Combination of these two mutations led strain QZ19 to produce D-lactic acid at a titer close to 100 g/L in 48 hours at pH 5.0 and 50° C. in pH-controlled fermentations.” left out

Sequence of Bacillus coagulans glycerol dehydrogenase (GlyDH/GDH), native, strain P4-102B, SEQ ID NO: 3 (A0AAN0T381 entry or part of it): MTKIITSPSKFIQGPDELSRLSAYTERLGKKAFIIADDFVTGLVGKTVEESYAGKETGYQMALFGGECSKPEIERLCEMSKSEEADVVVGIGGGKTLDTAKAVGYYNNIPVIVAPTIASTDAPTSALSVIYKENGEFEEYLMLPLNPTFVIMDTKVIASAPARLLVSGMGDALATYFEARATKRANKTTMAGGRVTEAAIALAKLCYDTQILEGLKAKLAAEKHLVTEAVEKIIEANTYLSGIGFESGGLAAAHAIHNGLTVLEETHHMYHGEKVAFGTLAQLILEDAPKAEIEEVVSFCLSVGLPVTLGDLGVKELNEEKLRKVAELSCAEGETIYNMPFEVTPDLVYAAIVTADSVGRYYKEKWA

## Bacillus coagulans glycerol dehydrogenase (GlyDH/GDH, native SEQ ID NO: 3) variant F245S (Heyndrickxia coagulans; F245S)
[1]
  kcat: 62.5 s⁻¹
  kcat/Km: 0.8 s⁻¹ mM⁻¹
[2]
  kcat: 19.5 s⁻¹
  kcat/Km: 0.08 s⁻¹ mM⁻¹

## OCC(O)CO [Glycerol]
[3]
  efficiency at oxidizing glycerol with NAD^+ relative to reducing pyruvate using NADH: about 1,000 times
[4]
  change in apparent Km for glycerol: slight increase

## Bacillus coagulans glycerol dehydrogenase (GlyDH/GDH, native SEQ ID NO: 3) variant D121N (Heyndrickxia coagulans; D121N)
[5]
  kcat: 1.9 s⁻¹
  kcat/Km: 0.008 s⁻¹ mM⁻¹
[6]
  kcat: 13.2 s⁻¹
  kcat/Km: 0.1 s⁻¹ mM⁻¹
[7]
  kcat: 2.0 s⁻¹
  kcat/Km: 0.003 s⁻¹ mM⁻¹

B1: Bacillus coagulans glycerol dehydrogenase (GlyDH/GDH, native SEQ ID NO: 3) variant F245S, D121N (GlyDH*, strain QZ19, SEQ ID NO: 1) (Heyndrickxia coagulans; … (protein)
chain: MTKIITSPSKFIQGPDELSRLSAYTERLGKKAFIIADDFVTGLVGKTVEESYAGKETGYQMALFGGECSKPEIERLCEMSKSEEADVVVGIGGGKTLDTAKAVGYYNNIPVIVAPTIASTNAPTSALSVIYKENGEFEEYLMLPLNPTFVIMDTKVIASAPARLLVSGMGDALATYFEARATKRANKTTMAGGRVTEAAIALAKLCYDTQILEGLKAKLAAEKHLVTEAVEKIIEANTYLSGIGSESGGLAAAHAIHNGLTVLEETHHMYHGEKVAFGTLAQLILEDAPKAEIEEVVSFCLSVGLPVTLGDLGVKELNEEKLRKVAELSCAEGETIYNMPFEVTPDLVYAAIVTADSVGRYYKEKWA
[8]
  kcat: 16.7 s⁻¹
  kcat/Km: 0.1 s⁻¹ mM⁻¹
[9]
  Km: 51 mM

B2: Bacillus coagulans glycerol dehydrogenase (GlyDH/GDH), native, strain P4-102B, SEQ ID NO: 3 (Heyndrickxia coagulans) (protein)
chain: B1 chain with N121D, S245F
[10]
  Km: 400 µM
[11]
  kcat: 28.0 s⁻¹
  kcat/Km: 2.4 s⁻¹ mM⁻¹
